Where no end group is shown, it is not given here.
B1: PRE 2 (peptide)
peptide: KDAQNLIGISL-NH2
notes: also called peptide PRE 2
B2: PRE 11 (peptide)
peptide: Ac-RDAQNLIGISI-NH2
notes: also called peptide PRE 11
B3: PRE 1 (peptide)
peptide: RRKKGGKDFVVKR
notes: also called peptide PRE 1; peptide recognition element 1

Legend:
[1] = target: T1, PKC-ε (endogenous, IMR-32 lysate) (human, UniProt Q02156 1-737); experiment: WB competition Protocol B, IMR-32 extract, vs anti-PKC-ε Ab; PKC-ε Band 1; 20 µg peptide
T1 construct: Band 1 and Band 2 (alternate splicing variants, not identified further) are kept under one molecule; the band is named in the assay field of each row; also called PKC-epsilon; PKC-ε Band 1
T1 sequence (looked up): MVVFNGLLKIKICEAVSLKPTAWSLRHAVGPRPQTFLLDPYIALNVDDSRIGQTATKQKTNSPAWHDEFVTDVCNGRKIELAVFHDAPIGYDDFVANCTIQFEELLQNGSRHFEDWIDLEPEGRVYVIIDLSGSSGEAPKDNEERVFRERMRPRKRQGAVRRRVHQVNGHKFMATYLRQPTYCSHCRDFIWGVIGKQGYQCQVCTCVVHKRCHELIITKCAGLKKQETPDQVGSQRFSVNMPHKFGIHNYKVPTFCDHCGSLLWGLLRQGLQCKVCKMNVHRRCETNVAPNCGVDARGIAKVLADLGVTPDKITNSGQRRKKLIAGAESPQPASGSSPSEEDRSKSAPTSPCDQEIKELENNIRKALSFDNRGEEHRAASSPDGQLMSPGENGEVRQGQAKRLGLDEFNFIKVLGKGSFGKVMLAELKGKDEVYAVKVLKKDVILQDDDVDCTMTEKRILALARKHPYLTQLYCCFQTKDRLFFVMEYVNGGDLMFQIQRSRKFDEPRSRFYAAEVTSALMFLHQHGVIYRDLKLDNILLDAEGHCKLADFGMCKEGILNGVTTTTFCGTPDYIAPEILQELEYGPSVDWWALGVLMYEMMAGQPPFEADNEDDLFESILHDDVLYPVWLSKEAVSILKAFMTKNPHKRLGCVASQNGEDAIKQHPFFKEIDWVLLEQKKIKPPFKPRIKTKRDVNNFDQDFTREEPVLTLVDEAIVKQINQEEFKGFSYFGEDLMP
Method: (§1) The ability of the peptides PRE 2 and PRE 3 (see Table 4) to interfere with the binding of a PKC-α-specific polyclonal antibody (Santa Cruz Biotechnology, Inc.) to PKC-α was determined using a modified version of the protocol outlined above in which the test peptide was added directly to the cell extract prior to electrophoresis at a concentration of either 5× or 15× the concentration of the protein applied to each well of the gel for the Western blots (20 μg).
(§2) Peptides PRE 2, PRE 3 and PRE 4 (see Table 4) were tested for their ability to interfere with the binding of isoform-specific polyclonal antibodies (Santa Cruz Biotechnology, Inc.) to […] using the general protocol described in Example 3. Two bands, representing alternate splicing variants of PKC-ε, were identified on the Western blot using this anti-PKC-ε antibody.

[2] = target: T1, PKC-ε (endogenous, IMR-32 lysate); experiment: WB competition Protocol B, IMR-32 extract, vs anti-PKC-ε Ab; PKC-ε Band 2; 50 µg peptide
Method: as §1, §2

[3] = target: T1, PKC-ε (endogenous, IMR-32 lysate); experiment: WB competition Protocol B, IMR-32 extract, vs anti-PKC-ε Ab; PKC-ε Band 2; 20 µg peptide
Method: as §1, §2

[4] = target: T1, PKC-ε (endogenous, IMR-32 lysate); experiment: WB competition Protocol B, IMR-32 extract, vs anti-PKC-ε Ab; PKC-ε Band 1; 100 µg peptide
Method: as §1, §2

[5] = target: T1, PKC-ε (endogenous, IMR-32 lysate); experiment: WB competition Protocol B, IMR-32 extract, vs anti-PKC-ε Ab; PKC-ε Band 1; 50 µg peptide
Method: as §1, §2

[6] = target: T1, PKC-ε (endogenous, IMR-32 lysate); experiment: WB competition Protocol B, IMR-32 extract, vs anti-PKC-ε Ab; PKC-ε Band 2; 100 µg peptide
Method: as §1, §2

[7] = target: T2, PKC-δ (purified isoform); experiment: competitive ELISA, coated purified PKC-δ, vs anti-PKC δ (SC-213); PRE 100 µM
T2 construct: also called PKC-delta
T2 sequence (Q05655 whole entry, stated change not applied, canonical isoform): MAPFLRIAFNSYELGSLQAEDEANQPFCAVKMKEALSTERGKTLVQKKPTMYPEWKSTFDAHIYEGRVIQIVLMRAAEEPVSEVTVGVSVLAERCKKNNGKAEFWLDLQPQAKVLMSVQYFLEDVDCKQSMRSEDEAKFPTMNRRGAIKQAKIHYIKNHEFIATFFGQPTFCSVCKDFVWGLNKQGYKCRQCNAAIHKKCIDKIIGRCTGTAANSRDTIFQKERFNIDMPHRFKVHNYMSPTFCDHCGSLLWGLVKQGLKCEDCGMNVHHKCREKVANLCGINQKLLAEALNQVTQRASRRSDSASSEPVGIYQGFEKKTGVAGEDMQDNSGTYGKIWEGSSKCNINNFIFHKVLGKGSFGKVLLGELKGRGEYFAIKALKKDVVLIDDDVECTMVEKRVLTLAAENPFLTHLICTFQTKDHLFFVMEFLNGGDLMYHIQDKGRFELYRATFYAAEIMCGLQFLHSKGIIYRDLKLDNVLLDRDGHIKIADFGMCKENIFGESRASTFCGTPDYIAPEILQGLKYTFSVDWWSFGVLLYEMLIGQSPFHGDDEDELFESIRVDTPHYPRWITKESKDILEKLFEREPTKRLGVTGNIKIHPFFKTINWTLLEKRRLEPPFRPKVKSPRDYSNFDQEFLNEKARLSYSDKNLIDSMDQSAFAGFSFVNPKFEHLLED
Method: (§3) Greiner 96 well ELISA plates were coated with the appropriate PKC isoform diluted in PBSN (PBS with Calcium/Magnesium+0.05% Sodium azide w/w). 50 μL/well at 250 ng/mL was used. Control wells contained PBSN only. Plates were incubated overnight at 4° C.
(§4) The plates were washed 3 times with 200 μL of dH₂O per well, then 100 μL of blocking solution was added per well and the plate incubated for 1 h at 37° C. The washing steps with dH₂O were repeated and 50 μL of the appropriate PRE solution (PRE stock solution [20 mM in DMSO] diluted in PBSN) was added and the plate incubated for 1 h at room temperature.
(§5) 50 μL of 1:1000 dilution of Alkaline Phosphatase (AP) conjugated antibody (anti-rabbit for all except zeta, which was anti-goat) was then added and the plate incubated for 1 h at room temperature. Washing with dH₂O was then repeated. Finally, 100 μL of pNPP solution in pNPP buffer (2 mM MgCl₂, 100 mM Sodium bicarbonate in water, pH 9.8) was added to all wells and incubated for 8 minutes for α, βI, βII ε, and ζ, or for 15-20 mins for δ (until sufficient coloration is observed). The reaction was stopped by addition of Stop solution (2N NaOH) and the absorbance at 405 nm was read on a Galaxy Plate reader.

[8] = target: T3, PKC-α (purified isoform) (Homo sapiens (Human), UniProt P17252 2-672); experiment: competitive ELISA, coated purified PKC-α, vs anti-PKC α (SC-208); PRE 200 µM
T3 construct: also called purified PKC-alpha; commercially purified PKC-alpha
Method: as §3, §4, §5

[9] = target: T2, PKC-δ (purified isoform); experiment: competitive ELISA, coated purified PKC-δ, vs anti-PKC δ (SC-213); PRE 50 µM
Method: as §3, §4, §5

[10] = target: T4, PKC-βII (purified isoform) (Homo sapiens (Human), UniProt P05771 2-621); experiment: competitive ELISA, coated purified PKC-βII, vs anti-PKC βII (SC-210); PRE 200 µM
T4 construct: also called PKC-beta II; PKC beta 2
T4 sequence (P05771 other isoform, or with tags, fused parts or gaps limits assumed): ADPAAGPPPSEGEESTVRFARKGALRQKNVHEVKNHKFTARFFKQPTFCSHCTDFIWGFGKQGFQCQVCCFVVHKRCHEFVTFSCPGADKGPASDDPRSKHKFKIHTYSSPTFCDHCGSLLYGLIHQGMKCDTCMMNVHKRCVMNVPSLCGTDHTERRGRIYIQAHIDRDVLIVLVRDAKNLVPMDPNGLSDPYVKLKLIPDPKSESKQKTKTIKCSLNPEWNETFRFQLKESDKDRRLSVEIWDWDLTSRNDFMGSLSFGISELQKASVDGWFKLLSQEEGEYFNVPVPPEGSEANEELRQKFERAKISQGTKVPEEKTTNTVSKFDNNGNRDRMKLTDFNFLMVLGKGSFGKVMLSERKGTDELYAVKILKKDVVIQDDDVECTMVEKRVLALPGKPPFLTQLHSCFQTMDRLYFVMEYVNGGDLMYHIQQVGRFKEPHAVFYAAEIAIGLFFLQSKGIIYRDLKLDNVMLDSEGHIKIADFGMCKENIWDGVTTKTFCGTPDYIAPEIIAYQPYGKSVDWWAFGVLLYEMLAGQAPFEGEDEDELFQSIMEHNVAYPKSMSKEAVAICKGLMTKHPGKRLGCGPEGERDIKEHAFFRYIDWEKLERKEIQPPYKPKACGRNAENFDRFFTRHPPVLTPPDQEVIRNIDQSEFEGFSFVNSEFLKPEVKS
Method: as §3, §4, §5

[11] = target: T3, PKC-α (purified isoform); experiment: competitive ELISA, coated purified PKC-α, vs anti-PKC α (SC-208); PRE 100 µM
Method: as §3, §4, §5

[12] = target: T5, PKC-βI (purified isoform) (Homo sapiens (Human), UniProt P05771 2-671); experiment: competitive ELISA, coated purified PKC-βI, vs anti-PKC βI (SC-209); PRE 200 µM
T5 construct: also called PKC-beta I; PKC beta 1
T5 sequence (P05771 2-671 limits assumed): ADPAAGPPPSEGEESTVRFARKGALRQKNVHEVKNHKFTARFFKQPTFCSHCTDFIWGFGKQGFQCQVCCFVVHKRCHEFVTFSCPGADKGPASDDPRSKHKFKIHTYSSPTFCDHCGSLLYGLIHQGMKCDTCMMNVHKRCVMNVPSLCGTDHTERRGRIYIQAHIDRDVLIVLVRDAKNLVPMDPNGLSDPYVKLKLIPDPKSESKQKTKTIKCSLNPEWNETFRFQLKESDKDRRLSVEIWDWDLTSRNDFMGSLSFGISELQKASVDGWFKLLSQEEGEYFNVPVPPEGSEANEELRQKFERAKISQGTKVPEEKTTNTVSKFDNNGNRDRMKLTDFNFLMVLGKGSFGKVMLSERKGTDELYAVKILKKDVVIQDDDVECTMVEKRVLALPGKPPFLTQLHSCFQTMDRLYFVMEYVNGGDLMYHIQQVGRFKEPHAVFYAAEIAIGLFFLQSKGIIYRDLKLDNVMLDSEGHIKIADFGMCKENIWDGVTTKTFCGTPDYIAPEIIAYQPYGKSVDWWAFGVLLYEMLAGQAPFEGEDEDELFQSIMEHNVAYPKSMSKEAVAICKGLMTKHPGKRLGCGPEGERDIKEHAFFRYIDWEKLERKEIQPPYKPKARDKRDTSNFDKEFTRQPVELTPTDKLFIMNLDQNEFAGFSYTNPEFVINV
Method: as §3, §4, §5

[13] = target: T2, PKC-δ (purified isoform); experiment: competitive ELISA, coated purified PKC-δ, vs anti-PKC δ (SC-213); PRE 200 µM
Method: as §3, §4, §5

[14] = target: T3, PKC-α (purified isoform); experiment: competitive ELISA, coated purified PKC-α, vs anti-PKC α (SC-208); PRE 50 µM
Method: as §3, §4, §5

[15] = target: T4, PKC-βII (purified isoform); experiment: competitive ELISA, coated purified PKC-βII, vs anti-PKC βII (SC-210); PRE 100 µM
Method: as §3, §4, §5

[16] = target: T5, PKC-βI (purified isoform); experiment: competitive ELISA, coated purified PKC-βI, vs anti-PKC βI (SC-209); PRE 100 µM
Method: as §3, §4, §5

[17] = target: T4, PKC-βII (purified isoform); experiment: competitive ELISA, coated purified PKC-βII, vs anti-PKC βII (SC-210); PRE 50 µM
Method: as §3, §4, §5

[18] = target: T5, PKC-βI (purified isoform); experiment: competitive ELISA, coated purified PKC-βI, vs anti-PKC βI (SC-209); PRE 50 µM
Method: as §3, §4, §5

Binder | relative binding capacity (100-%n, DMSO subtracted) [7] [%] | relative binding capacity (100-%n, DMSO subtracted) [8] [%] | relative binding capacity (100-%n, DMSO subtracted) [9] [%] | relative binding capacity (100-%n, DMSO subtracted) [10] [%] | relative binding capacity (100-%n, DMSO subtracted) [11] [%] | relative binding capacity (100-%n, DMSO subtracted) [12] [%] | relative binding capacity (100-%n, DMSO subtracted) [13] [%] | relative binding capacity (100-%n, DMSO subtracted) [14] [%] | relative binding capacity (100-%n, DMSO subtracted) [15] [%] | relative binding capacity (100-%n, DMSO subtracted) [16] [%] | relative binding capacity (100-%n, DMSO subtracted) [17] [%] | relative binding capacity (100-%n, DMSO subtracted) [18] [%] | also measured
B1 | – | – | – | – | – | – | – | – | – | – | – | – | Band Intensity [1]: 323; Inhibition (%) [1]: 23.4%; Relative Intensity (%) [1]: 76.6%; Band Intensity [2]: 0; Inhibition (%) [2]: 100%; Relative Intensity (%) [2]: 0%; Band Intensity [3]: 160; Inhibition (%) [3]: 38.6%; Relative Intensity (%) [3]: 61.4%; Band Intensity [4]: 0; Inhibition (%) [4]: 100%; Relative Intensity (%) [4]: 0%; Band Intensity [5]: 0; Inhibition (%) [5]: 100%; Relative Intensity (%) [5]: 0%; Band Intensity [6]: 0; Inhibition (%) [6]: 100%; Relative Intensity (%) [6]: 0%
B2 | 21.5 | 13.3 | 34.1 | 6.4 | 5.96 | 12.5 | 18.7 | 0 | 11 | 14.2 | 7.14 | 9.86 | –
B3 | 45.2 | 2.1 | 35.7 | 0 | 0 | 13.4 | 49.4 | 0.69 | 0 | 13.9 | 0 | 19.8 | –
